The values below come from patent US20130345115A1.

Assay [1] concerns the target Wild type H4 nucleosome (mononucleosome with FLAG-HA-tagged wild type human H4) (human; human (293T cells)) (UniProt P62805). The experiment in a line: MudPIT, co-purification.
Assay [2] has as its target (Δ1-28) H4 nucleosome (mononucleosome with FLAG-HA-tagged tailless human H4 lacking the first 28 amino acids) (human; human (293T cells)) (UniProt P62805). Briefly: MudPIT, co-purification.

For “protein arginine methyltransferase 5 (from UniProt O14744 2-637) (enzyme)”, the amino acid coverage worked out at 21.8% in assay [1] and 23.8% in assay [2]. The peptide count in assay [1] and in assay [2] was 9 peptides throughout.

In assay [1], “damage-specific DNA binding protein 1, 127 kDa (from UniProt Q16531 2-1140)” yielded an amino acid coverage of 5.4% and a peptide count of 3 peptides. In assay [2], the amino acid coverage stood at 3.7% and the peptide count worked out at 2 peptides.

Consider “suppressor of zeste 12 homolog (Drosophila) (from UniProt Q15022 1-739)”, for which the values for the amino acid coverage in assay [1] and in assay [2] were 5.1% and 1.4%, respectively. For the same substance, the peptide count in assay [1] was found to be 3 peptides; in assay [2], 1 peptides.

Regarding “chromobox homolog 1 (HP1 beta homolog Drosophila) (from UniProt P83916 1-185)”, the amino acid coverage came to 17.3% in assay [1] and 22.8% in assay [2]. For the same substance, the values for the peptide count in assay [1] and in assay [2] were 2 peptides and 3 peptides, respectively.

In assay [1], “chromodomain helicase DNA binding protein 4 (from UniProt Q14839 1-1912)” had an amino acid coverage of 1.2% and a peptide count of 2 peptides. Moreover, in assay [2], the amino acid coverage stood at 0.6% and the peptide count is 1 peptides.
